Data: US20030068806A1

Tests used:
[1] = tested on: T1, p70-bac heparanase (human recombinant heparanase secreted by baculovirus infected insect cells)
T1 sequence: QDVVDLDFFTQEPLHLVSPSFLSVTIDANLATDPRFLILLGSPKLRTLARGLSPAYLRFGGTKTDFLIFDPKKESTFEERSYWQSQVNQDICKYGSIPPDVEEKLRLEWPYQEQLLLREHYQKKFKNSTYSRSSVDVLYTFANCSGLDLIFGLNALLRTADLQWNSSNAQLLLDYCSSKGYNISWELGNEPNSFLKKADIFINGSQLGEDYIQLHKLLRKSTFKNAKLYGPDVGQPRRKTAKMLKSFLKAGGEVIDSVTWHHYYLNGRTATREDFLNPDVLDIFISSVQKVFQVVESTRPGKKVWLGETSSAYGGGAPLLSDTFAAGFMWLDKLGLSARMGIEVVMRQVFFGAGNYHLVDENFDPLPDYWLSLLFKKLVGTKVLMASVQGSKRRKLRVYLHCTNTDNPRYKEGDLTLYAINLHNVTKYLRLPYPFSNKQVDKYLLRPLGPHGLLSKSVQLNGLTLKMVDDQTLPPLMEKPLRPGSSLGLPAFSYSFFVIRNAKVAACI

[2] = tested on: T2, p70 heparanase (about 70 kDa form of recombinant human heparanase expressed in mammalian cells)
T2 sequence: T1 sequence

Substance	heparanase activity (DMB assay) and Western blot before and after cathepsin L [1]	heparanase activity (DMB assay) after trypsin digestion [1]	heparanase activity (DMB assay) after trypsin digestion of CHO conditioned medium [2]
cathepsin L (Cat. No. 219412, Calbiochem)	demonstrates proteolytic processing of p70-bac heparanase by cathepsin L		
trypsin (Cat. No. T-8642, Sigma USA)		reaching maximal activation of five-fold already at 15 units trypsin	recombinant heparanase processing and activation occurred when mild trypsin digestion was employed on a crude conditioned medium of CHO cells that secrete mammalian p70 heparanase (FIG. 27). Activation was dose dependent.
